Laboratory results: PMC12753827 (Nature Communications, 2025)

Target: the molecule itself
Assay: SEC

B1: CeLGR-ΔC (C. elegans leucine-rich-repeat-containing GPCR truncated after helix 8 at residue 712) (receptor)
chain: QNALSLAQTKHSCMALKAEDGEGCTCKQTKRYGQPECCCMGLIVSQLPTNLTADVGYLYLHNTSISVITPNFFDKFPSIRELEIDNSAHLEHIDGSSLSVLSKLRKLSVVKCPNLREISGKLLVNNTRIQNVILKNNGLATMPSLRMTDAHHVLLDRIDLSGNKIKFISDSKVRNVKARTVVLSENKLIEISGYAFTESQFLKLKLNNNPDLRSLSVDAFKNMAGLQTLDLSHTSIDTLPINGLKKLKTLILNDVPTLKSLPSVLSFTDLETAHFTYPHHCCLFKYVDDVTMNDNGKYQRNAKEIHKRICDKREQQKVARRRKRETSGIDFLDMLLKEWTDNSTYTGPDDADDDELPPFVEIGAEPCQSIGEEVQKYYSNITCYPQPDALNPCENIVGYPFLRIAVWVVCLAAIVGNIIVWALLGIVYEKRMRMHYLYMINMSVADMVTGIYLAVLAIADAKMSDEYYRHAVWWQTGWGCRAAGFLAVFASELGIISMFLIAFEMSYNTRQSFRGRRLSPKVGVLLMIGGWLFAIIMAILPWFDVSSYSESSVCLPLRAATIFDKSYLIFGLSFNFLAFAAMALSYGFIVKMLKENETREEDRALITKMTVLVVTDLICWFPTLFFGFTATIGFPLLSLSSAKFVLVFFFPINAFANPFLYVFFTEVIQHRVRSKTLPVIRR
  stoichiometry N: 2
